The values below come from patent publication US20100056764A1 (Novo Nordisk, published 2010).

Several values for one entry are separate records, joined by “and”; a condition that tells them apart may be missing. Identical values can stand only once. Like-named read-outs stand apart in the source and are kept apart here.

The target of experiment [1] is T1, human NKG2D (hNKG2D) on the cell surface (human, UniProt P26718 1-216).
T1 chain: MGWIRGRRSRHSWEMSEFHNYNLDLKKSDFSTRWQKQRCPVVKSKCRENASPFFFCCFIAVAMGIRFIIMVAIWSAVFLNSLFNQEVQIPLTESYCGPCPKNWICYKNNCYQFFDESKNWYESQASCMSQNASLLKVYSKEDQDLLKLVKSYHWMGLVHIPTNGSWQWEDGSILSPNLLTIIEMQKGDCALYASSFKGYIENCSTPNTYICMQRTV
The experiment in a line: cell-based or functional assay.

Experiment [2] deals with T1, human NKG2D (hNKG2D) on the cell surface. In words: flow cytometry, human CD8 T cells in PBMC, anti-human IgG4 detection. As for the experimental part: (§1) Briefly, incubation with antibody was performed at 4° C. for 30 min followed by washing, then directly labelled secondary anti-hIgG4 antibody was added and incubated for 30 min at 4° C. along with antibodies specific for the various cell populations of interest, CD8, CD4, NK and γδ-T cells, then the cells were washed twice in PBS with 2% FCS and the red blood cell lysed. The cells were then analyzed by flow cytometry and binding to the different cell populations assessed.
A general note: In flow cytometry, cells or beads pass a laser one at a time.

For experiment [3], the target named is T2, cynomolgous monkey NKG2D on NK, CD8+ T and gamma-delta T cells (cynomolgous monkey (Macaca fascicularis), UniProt P61252 1-216).
T2 construct: whole, on cells; Target on cynomolgous PBMC and whole blood cells; also called cynomologous NKG2D; cyno NKG2D
T2 sequence (looked up): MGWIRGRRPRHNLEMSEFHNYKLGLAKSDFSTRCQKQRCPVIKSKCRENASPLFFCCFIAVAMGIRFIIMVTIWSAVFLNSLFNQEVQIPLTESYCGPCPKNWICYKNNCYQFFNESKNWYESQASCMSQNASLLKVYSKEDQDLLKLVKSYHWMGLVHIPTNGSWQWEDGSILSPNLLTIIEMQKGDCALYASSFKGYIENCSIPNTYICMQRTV
In words: flow cytometry, NK cells; reference is 21F2 on human cells. Here is the method:
as §1

The target in experiment [4] is T2, cynomolgous monkey NKG2D on NK, CD8+ T …. In words: flow cytometry, cynomolgous CD8 T cells in PBMC, anti-human IgG4 detection. As for the experimental part: as §1
The target is the same in experiment [5]. In words: flow cytometry, gamma-delta T cells (Gd); reference is 21F2 on human cells. Here is the method:
as §1

Experiment [6] deals with T1, human NKG2D (hNKG2D) on the cell surface. In words: flow cytometry, dose-response on NKG2D- and DAP10-expressing BaF/3 cells.
In experiment [7] the target is T2, cynomolgous monkey NKG2D on NK, CD8+ T …. The experiment in a line: flow cytometry, cynomolgous gamma-delta T cells (Gd) in PBMC, anti-human IgG4 detection. As for the experimental part: as §1
Experiment [8] deals with T3, recombinant NKG2D-Fc protein (R&D Systems), immobilized on a Biacore CM5 chip (human, UniProt P26718 78-216).
T3 construct: also called NKG2D-hFc; hFc-NKG2D; not shown: Fc portion of the purchased fusion protein
T3 sequence: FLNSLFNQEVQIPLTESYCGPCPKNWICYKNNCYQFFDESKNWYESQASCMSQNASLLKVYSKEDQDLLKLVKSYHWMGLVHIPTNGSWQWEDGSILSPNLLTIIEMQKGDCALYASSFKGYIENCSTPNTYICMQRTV
In words: SPR (Biacore), NKG2D-Fc immobilized on CM5 chip at 400 RU, antibody in solution, Langmuir fit. As for the experimental part: Surface plasmon resonance measurements were performed on a Biacore 1000 upgrade apparatus (Biacore GE Healthcare; Biacore Upgrade CA0396) at 25° C. In all Biacore experiments HBS-EP buffer (Biacore GE Healthcare; BR-1001-88) served as running buffer and sensorgrams were analyzed with Biaevaluation 4.1 software.
Protein immobilisation. […] Recombinant NKG2D-Fc proteins were immobilized covalently to carboxyl groups in the dextran layer on a Sensor Chip CM5 (Biacore GE Healthcare; BR-1000-14). The sensor chip surface was activated with EDC/NHS (N-ethyl-N′-(3-dimethylaminopropyl)carbodiimidehydrochloride and N-hydroxysuccinimide (Biacore GE Healthcare; BR-1000-50)). […] Deactivation of the remaining activated groups was performed using 100 mM ethanolamine pH 8 (Biacore GE Healthcare; BR-1000-50).
[…] The resulting sensorgrams were analysed by global fitting using the Langmuir model. The dissociation constant (KD) was calculated as KD=kd/ka.

Experiment [9] deals with T1, human NKG2D (hNKG2D) on the cell surface. The experiment in a line: flow cytometry, NKG2D/DAP10 BaF/3 cells pre-incubated with antibody, then 1 µg MICA-mFc (competitor). Here is the method:
(§2) Flow cytometry assays—MICA blockade. […] The cells were then analysed on a B&D FACSArray flow cytometer. The degree of reduction of MICA binding by preincubation was analysed as MFI (mean fluorescence intensity) of binding with pre-incubation in % of binding of MICA without preincubation.

Experiment [10] shares this target. The description is as above. Here is the method: as §2
Experiment [11] has the same target. In words: flow cytometry blocking assay on NKG2D/DAP10-expressing BaF/3 cells: pre-incubation with the antibody, then 1 µg MICA-mFc; y axis % remaining MICA-Fc binding. Here is the method: as §2
The target is the same in experiment [12]. The experiment in a line: flow cytometry, human gamma-delta T cells (Gd) in PBMC, anti-human IgG4 detection. Here is the method: as §1
Experiment [13] has as its target T2, cynomolgous monkey NKG2D on NK, CD8+ T …. The experiment in a line: flow cytometry, cynomolgous NK cells in PBMC, anti-human IgG4 detection. Here is the method: as §1
For experiment [14], the target named is T1, human NKG2D (hNKG2D) on the cell surface. In words: flow cytometry, human NK cells in PBMC, anti-human IgG4 detection. As for the experimental part: as §1
Experiment [15] addresses T2, cynomolgous monkey NKG2D on NK, CD8+ T …. The experiment in a line: flow cytometry, CD8 T cells; reference is 21F2 on human cells. Here is the method:
as §1

B1: 21F2, fully human anti-hNKG2D monoclonal antibody, recombinantly expressed as IgG4 isotype (antibody, V domains shown)
VH: EVQLVQSGAEVKEPGESLKISCKNSGYSFTNYWVGWVRQMPGKGLEWMGIIYPGDSDTRYSPSFQGQVTISADKSINTAYLQWSSLKASDTAMYYCGRLTMFRGIIIGYFDYWGQGTLVTVSS
VL: EIVLTQSPATLSLSPGERATLSCRASQSVSSYLAWYQQKPGQAPRLLIYDASNRATGIPARFSGSGSGTDFTLTISSLEPEDFAVYYCQQRSNWPWTFGQGTKVEIKR
notes: also called 21F2 IgG4; 21F2 (IgG4)
As usually defined, the EC50 is the concentration needed to bring the measured effect to its halfway point. In general, Kd refers to the equilibrium constant for the complex coming apart. Broadly, the koff is the rate constant with which the complex falls apart. In general, kon refers to the rate constant with which the complex forms. The term IC50 denotes the concentration needed to halve the response being measured. For B1, the “EC50 (µg/ml), inhibition of NK cell killing of ULPB3-expressing target cells (51Cr release)” value in experiment [1] is 0.021 µg/mL. Moreover, the EC50 in [2] is 0.0605 µg/mL; in experiment [4], 0.0435 µg/mL; in [6], 0.033 µg/mL and 0.023 nM; in [7], 0.0464 µg/mL; in experiment [12], 0.0572 µg/mL; in [13] it was 0.0475 µg/mL. In experiment [14], the EC50 came to 0.0712 µg/mL. The figures for the “relative EC50, cynomolgous to human cells (%)” value in experiment [3], in experiment [5] and in experiment [15] were 66.7%, 81.1% and 71.9%, respectively. Moreover, the Kd in experiment [8] was 77.9 pM. Moreover, the koff in [8] worked out at 0.000144 s⁻¹. Further, the kon in [8] amounted to 1.85e+06 M⁻¹ s⁻¹. In addition, the “Full blockade of 1 µg MICA-Fc (antibody concentration)” value in experiment [9] was 0.16 µg/mL. Also, the IC50 stood at 0.0063 µg/mL in experiment [9] and 4.8 pM in experiment [10]. Further, the “IC50 (read off the curve)” value in [11] was approximately 4 pM.

B2: MS, fully human anti-hNKG2D monoclonal antibody, recombinantly expressed as IgG4 isotype (antibody, V domains shown)
VH: QVHLQESGPGLVKPSETLSLTCTVSDDSISSYYWSWIRQPPGKGLEWIGHISYSGSANYNPSLKSRVTISVDTSKNQFSLKLSSVTAADTAVYYCANWDDAFNIWGQGTMVTVSS
VL: not shown
notes: also called MS IgG4; MS (IgG4)
Consider B2, for which, in experiment [11], the “IC50 (read off the curve)” value is approximately 2 pM.
